Legend:
FGFR3 = FGFR3 (UniProt P22607); test: phosphorylation enrichment, bacterial display (enrichment ratio); higher = better substrate or ligand; peptides without Tyr show the background
AncSZ = test: as above
Fyn = Fyn (UniProt P06241); test: as above
EPHB1 = EPHB1 (UniProt P54762); test: as above
Fer (mouse) = test: as above
EPHB2 = EPHB2 (UniProt P29323); test: as above
Hck = Hck (UniProt P08631); test: as above
c-Src = test: as above
Jak2 = Jak2 (UniProt O60674); test: as above
FGFR1 = FGFR1 (UniProt P11362); test: as above
MERTK = MERTK (UniProt Q12866); test: as above
Fes = Fes (UniProt P07332); test: as above
c-Abl (mouse) = test: as above
SHP2-C SH2 = test: SH2 binding enrichment of the phosphorylated peptide, bacterial display (enrichment ratio); higher = better substrate or ligand; peptides without Tyr show the background
Grb2 SH2 = Grb2 SH2 (UniProt P62993); test: as above
c-Src SH2 = test: as above
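Throughout, for SH2 binding enrichment of the phosphorylated peptide, bacterial display: peptide library displayed on the E. coli surface as eCPX fusions, selected cells deep-sequenced, score is each peptide's frequency after selection divided by its frequency in the input.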
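Throughout, for phosphorylation enrichment, bacterial display: 11-residue human phosphosite peptides and single-mutation variants displayed on the E. coli surface, counted by deep sequencing, each peptide's frequency after selection divided by its frequency in the unselected input library; frequency after pTyr selection over input frequency; kinase dosed for 20-30% of maximal phosphorylation in three min.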

Jak2, sequence (O60674 whole entry, looked up): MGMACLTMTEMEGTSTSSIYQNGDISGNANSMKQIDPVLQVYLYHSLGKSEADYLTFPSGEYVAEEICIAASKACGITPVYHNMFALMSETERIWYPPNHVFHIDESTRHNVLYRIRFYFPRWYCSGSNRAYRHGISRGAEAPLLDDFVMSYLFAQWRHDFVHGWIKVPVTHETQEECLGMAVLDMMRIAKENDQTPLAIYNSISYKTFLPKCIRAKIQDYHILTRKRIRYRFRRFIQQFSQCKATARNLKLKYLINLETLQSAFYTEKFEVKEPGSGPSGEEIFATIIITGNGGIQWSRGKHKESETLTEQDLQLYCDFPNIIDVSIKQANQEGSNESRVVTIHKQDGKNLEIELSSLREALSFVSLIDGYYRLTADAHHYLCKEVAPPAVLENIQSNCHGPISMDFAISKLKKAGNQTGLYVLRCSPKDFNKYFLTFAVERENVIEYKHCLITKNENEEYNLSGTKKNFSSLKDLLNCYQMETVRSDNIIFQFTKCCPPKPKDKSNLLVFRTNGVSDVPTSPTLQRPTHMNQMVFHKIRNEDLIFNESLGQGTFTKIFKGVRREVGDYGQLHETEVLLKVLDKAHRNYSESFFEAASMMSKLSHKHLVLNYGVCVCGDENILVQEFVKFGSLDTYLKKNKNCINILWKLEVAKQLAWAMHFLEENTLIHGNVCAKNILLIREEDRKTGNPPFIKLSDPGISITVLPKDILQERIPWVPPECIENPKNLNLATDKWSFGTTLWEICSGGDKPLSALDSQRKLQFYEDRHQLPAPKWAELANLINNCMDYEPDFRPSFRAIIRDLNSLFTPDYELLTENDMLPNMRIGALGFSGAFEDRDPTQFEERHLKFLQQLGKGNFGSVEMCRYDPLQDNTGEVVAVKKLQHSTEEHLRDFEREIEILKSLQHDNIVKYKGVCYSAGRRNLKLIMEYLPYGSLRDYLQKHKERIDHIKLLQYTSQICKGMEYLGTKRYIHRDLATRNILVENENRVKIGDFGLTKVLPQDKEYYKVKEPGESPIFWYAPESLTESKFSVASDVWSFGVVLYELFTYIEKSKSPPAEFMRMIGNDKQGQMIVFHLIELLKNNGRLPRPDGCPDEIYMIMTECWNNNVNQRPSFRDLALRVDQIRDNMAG
MERTK, sequence (Q12866 whole entry, looked up): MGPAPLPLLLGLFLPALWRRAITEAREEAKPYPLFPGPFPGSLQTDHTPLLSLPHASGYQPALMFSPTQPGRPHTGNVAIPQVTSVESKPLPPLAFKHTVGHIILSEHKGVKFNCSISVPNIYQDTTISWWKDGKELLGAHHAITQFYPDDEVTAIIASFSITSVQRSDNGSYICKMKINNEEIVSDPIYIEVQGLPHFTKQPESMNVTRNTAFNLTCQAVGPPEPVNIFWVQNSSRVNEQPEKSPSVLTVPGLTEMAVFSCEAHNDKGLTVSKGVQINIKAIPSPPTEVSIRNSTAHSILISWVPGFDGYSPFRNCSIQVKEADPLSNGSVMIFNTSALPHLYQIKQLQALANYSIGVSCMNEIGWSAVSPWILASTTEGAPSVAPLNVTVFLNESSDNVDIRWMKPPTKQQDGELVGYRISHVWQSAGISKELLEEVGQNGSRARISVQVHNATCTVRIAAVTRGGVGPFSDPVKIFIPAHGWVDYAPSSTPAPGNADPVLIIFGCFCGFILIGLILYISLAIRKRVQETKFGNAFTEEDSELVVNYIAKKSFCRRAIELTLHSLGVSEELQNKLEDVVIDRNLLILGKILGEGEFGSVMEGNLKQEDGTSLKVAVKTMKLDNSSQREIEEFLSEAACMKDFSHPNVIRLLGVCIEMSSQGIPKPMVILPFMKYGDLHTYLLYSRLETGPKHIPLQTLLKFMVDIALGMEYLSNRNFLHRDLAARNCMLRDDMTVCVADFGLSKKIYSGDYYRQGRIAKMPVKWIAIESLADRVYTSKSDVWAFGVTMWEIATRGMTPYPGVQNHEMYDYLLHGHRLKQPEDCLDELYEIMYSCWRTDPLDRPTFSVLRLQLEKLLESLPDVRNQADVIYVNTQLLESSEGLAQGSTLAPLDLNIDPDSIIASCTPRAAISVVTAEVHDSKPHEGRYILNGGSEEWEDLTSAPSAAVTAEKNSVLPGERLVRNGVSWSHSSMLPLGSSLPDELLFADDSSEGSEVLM
EPHB1, sequence (P54762 whole entry, looked up): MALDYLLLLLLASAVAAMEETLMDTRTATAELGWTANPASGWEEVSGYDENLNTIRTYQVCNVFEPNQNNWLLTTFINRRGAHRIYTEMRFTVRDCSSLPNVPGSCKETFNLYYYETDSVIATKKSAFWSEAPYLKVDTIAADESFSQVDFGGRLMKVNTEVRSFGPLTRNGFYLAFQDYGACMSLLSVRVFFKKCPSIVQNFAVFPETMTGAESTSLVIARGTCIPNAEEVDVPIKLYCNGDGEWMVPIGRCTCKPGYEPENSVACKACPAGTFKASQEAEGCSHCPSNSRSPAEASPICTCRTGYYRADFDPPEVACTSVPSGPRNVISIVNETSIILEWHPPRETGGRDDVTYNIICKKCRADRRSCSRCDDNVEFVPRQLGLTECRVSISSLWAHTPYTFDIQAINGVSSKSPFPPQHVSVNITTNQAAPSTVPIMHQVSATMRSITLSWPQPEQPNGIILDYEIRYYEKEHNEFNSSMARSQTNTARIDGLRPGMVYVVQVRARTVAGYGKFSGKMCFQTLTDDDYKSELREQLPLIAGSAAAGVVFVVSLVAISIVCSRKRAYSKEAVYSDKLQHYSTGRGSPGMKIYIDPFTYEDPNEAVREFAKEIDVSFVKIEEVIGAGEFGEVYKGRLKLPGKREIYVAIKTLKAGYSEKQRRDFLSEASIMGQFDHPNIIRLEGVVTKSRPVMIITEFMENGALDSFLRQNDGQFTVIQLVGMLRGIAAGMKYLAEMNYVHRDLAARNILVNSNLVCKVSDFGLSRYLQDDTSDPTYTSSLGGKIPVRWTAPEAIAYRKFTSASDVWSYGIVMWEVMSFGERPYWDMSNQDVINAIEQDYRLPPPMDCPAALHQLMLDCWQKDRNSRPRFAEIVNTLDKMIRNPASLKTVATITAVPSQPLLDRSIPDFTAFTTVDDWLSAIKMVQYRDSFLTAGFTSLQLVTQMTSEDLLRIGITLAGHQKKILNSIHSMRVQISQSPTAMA
Hck, sequence (P08631 whole entry, looked up): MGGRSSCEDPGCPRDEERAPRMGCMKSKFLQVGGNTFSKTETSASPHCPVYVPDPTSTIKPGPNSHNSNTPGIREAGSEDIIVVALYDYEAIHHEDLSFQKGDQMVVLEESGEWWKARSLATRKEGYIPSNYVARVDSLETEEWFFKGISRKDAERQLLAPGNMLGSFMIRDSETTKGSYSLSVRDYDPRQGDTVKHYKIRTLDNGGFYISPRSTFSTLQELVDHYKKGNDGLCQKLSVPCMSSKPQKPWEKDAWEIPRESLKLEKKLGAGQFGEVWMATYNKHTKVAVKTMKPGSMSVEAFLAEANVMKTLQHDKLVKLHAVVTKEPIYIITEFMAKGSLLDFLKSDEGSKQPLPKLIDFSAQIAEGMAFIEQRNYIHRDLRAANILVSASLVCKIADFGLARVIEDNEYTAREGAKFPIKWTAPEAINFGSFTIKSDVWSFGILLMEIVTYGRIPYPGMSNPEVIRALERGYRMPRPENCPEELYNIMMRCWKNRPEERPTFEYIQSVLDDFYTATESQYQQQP
Grb2 SH2, sequence (P62993 whole entry, looked up): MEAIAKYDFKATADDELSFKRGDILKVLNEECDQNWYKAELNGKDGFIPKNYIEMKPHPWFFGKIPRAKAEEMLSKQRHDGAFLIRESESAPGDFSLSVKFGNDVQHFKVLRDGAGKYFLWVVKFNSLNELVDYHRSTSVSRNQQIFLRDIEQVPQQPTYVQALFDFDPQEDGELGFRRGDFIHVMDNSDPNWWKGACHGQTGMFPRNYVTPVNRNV
Fes, sequence (P07332 whole entry, looked up): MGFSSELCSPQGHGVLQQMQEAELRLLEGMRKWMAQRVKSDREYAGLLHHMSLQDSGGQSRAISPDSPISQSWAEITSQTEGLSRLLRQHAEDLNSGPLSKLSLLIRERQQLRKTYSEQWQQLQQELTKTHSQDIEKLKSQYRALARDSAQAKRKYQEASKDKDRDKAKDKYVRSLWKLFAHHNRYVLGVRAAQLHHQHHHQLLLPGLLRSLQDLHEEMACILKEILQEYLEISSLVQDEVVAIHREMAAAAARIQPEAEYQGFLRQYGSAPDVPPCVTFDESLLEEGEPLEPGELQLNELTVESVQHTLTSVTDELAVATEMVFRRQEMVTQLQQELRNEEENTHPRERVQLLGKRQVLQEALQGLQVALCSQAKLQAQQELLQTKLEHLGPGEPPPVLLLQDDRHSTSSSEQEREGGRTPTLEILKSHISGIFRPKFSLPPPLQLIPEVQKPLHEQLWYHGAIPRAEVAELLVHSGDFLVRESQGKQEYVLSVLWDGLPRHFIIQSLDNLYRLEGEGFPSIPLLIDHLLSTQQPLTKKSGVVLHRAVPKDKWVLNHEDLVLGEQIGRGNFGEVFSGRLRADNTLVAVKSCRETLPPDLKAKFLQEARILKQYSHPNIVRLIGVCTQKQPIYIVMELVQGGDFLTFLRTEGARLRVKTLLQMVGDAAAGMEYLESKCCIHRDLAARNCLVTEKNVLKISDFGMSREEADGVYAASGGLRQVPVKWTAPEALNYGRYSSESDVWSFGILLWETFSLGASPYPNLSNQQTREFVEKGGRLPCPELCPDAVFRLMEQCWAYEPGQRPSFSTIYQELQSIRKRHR

Sequence | phosphorylation enrichment (FGFR3) | phosphorylation enrichment (AncSZ) | phosphorylation enrichment (Fyn) | phosphorylation enrichment (EPHB1) | phosphorylation enrichment (Fer (mouse)) | phosphorylation enrichment (EPHB2) | phosphorylation enrichment (Hck) | phosphorylation enrichment (c-Src) | phosphorylation enrichment (Jak2) | phosphorylation enrichment (FGFR1) | phosphorylation enrichment (MERTK) | phosphorylation enrichment (Fes) | phosphorylation enrichment (c-Abl (mouse)) | SH2 binding enrichment (SHP2-C SH2) | SH2 binding enrichment (Grb2 SH2) | SH2 binding enrichment (c-Src SH2)
QLQVFYATLDQ [MIPEP_Y579] | 1.34 | 1.74 | 1.8 | 1.09 | 2.77 | 1.99 | 3.38 | 3.92 | 2.12 | 1.12 | 7.63 | 2.19 | 2.27 | 5.62 | 1.26 | 3.26
QMQNPYSRHSS [MUC13_Y501] | 0.495 | 0.521 | 0.418 | 0.363 | 0.648 | 0.416 | 0.544 | 0.472 | 0.468 | 0.572 | 0.346 | 0.584 | 0.57 | 0.758 | 0.974 | 0.558
QMVGMYASSSM [AVPR2_Y124_Y128S] | 0.435 | 0.647 | 0.438 | 0.73 | 0.472 | 0.403 | 0.766 | 0.567 | 0.635 | 0.477 | 0.504 | 0.645 | 0.807 | 0.756 | 0.869 | 0.685
QNVADYMRFLM [RPL5_Y207_YF] | 1.09 | 1.73 | 1.2 | 1.79 | 0.818 | 1.92 | 1.09 | 1.64 | 2.91 | 0.871 | 0.814 | 1.97 | 1.42 | 0.842 | 0.894 | 0.62
QPTPGYEVGQR [TSC2_Y1788_E1783Q] | 0.621 | 0.637 | 0.541 | 0.454 | 0.21 | 0.474 | 0.535 | 0.329 | 0.444 | 0.609 | 0.255 | 0.759 | 0.443 | 0.666 | 1.07 | 0.572
QQLQGYIPSNY [FRK_Y99] | 0.49 | 0.623 | 0.356 | 0.473 | 0.329 | 0.437 | 0.633 | 0.382 | 0.647 | 0.314 | 0.475 | 0.671 | 0.47 | 0.477 | 0.944 | 0.333
QRALLYEDTLF [UNC13D_Y56_A59T_YF] | 0.853 | 1.58 | 1.49 | 15.4 | 17.9 | 13.9 | 1.65 | 1.95 | 1.68 | 0.599 | 9.24 | 4.74 | 1.13 | 0.82 | 0.739 | 0.547
QRIFQYIRSRF [DYRK1B_Y273_Q275R_YF] | 0.695 | 1.07 | 0.837 | 0.817 | 0.827 | 0.795 | 0.83 | 1.36 | 1.24 | 0.75 | 0.975 | 1.26 | 0.988 | 0.467 | 0.765 | 0.521
QRRLVYFERGA [RYR1_Y245_G248R_YF] | 0.742 | 0.847 | 0.584 | 0.665 | 0.586 | 0.79 | 0.507 | 0.569 | 0.811 | 0.918 | 0.484 | 0.827 | 0.805 | 0.578 | 0.942 | 0.65
QSRSPYSSRHS [CDK13_Y415_R410Q] | 0.541 | 0.85 | 0.715 | 0.471 | 0.543 | 0.443 | 0.593 | 0.705 | 0.823 | 0.558 | 0.452 | 0.808 | 0.597 | 0.852 | 1.2 | 0.549
QTEAQYRFIFM [PTPN11_Y511_YF] | 1.02 | 1.18 | 0.612 | 0.774 | 0.785 | 0.467 | 0.688 | 0.702 | 1.78 | 0.893 | 0.58 | 1.92 | 1.82 | 0.777 | 0.627 | 0.355
QTLTDYDTRFY [CSNK2A3_Y131_I133T] | 0.69 | 1.01 | 0.556 | 0.861 | 0.749 | 0.667 | 0.619 | 0.428 | 1.06 | 0.612 | 0.483 | 1.25 | 0.692 | 0.757 | 0.815 | 0.678
QTPVLYAMLFH [MPZ_Y220_D224Y_YF] | 2.13 | 0.771 | 4.56 | 6.9 | 6.25 | 4.17 | 5.5 | 4.04 | 1.39 | 2.41 | 7.73 | 1.23 | 1.61 | 0.778 | 1.03 | 0.601
QTPVLYTMLDH [MPZ_Y220_A221T] | 3.51 | 0.896 | 2.02 | 4.45 | 10.7 | 1.78 | 5.48 | 3 | 0.907 | 2.85 | 13.4 | 1.14 | 0.674 | 11.8 | 0.866 | 3.44
QYNPEYVQQAS [LRRC7_Y1058_H1054Y] | 1.05 | 1.16 | 0.707 | 0.687 | 0.939 | 0.802 | 0.831 | 0.508 | 0.995 | 0.854 | 0.635 | 1.28 | 1 | 1.47 | 1.06 | 0.431
RAHARYCADAR [ACOT4_Y52] | 0.633 | 0.614 | 0.392 | 0.444 | 0.333 | 0.676 | 0.54 | 0.419 | 0.533 | 0.406 | 0.444 | 1.08 | 0.689 | 0.746 | 0.92 | 0.656

— the supplement of paper PMC10065799, “High-throughput profiling of sequence recognition by tyrosine kinases and SH2 domains using bacterial peptide display” (eLife, 2023)
